Measurements as given in patent US20110223163A1 (US Dept. of Health and Human Services, published 2011).

Tests used:
[1] = molecular target: BSA (UniProt P02769 25-607); test: ELISA, full-length IgG
[2] = molecular target: synthetic 10-mer peptide of γ-D-glutamic acids

Sequence of BSA (P02769 25-607 limits assumed): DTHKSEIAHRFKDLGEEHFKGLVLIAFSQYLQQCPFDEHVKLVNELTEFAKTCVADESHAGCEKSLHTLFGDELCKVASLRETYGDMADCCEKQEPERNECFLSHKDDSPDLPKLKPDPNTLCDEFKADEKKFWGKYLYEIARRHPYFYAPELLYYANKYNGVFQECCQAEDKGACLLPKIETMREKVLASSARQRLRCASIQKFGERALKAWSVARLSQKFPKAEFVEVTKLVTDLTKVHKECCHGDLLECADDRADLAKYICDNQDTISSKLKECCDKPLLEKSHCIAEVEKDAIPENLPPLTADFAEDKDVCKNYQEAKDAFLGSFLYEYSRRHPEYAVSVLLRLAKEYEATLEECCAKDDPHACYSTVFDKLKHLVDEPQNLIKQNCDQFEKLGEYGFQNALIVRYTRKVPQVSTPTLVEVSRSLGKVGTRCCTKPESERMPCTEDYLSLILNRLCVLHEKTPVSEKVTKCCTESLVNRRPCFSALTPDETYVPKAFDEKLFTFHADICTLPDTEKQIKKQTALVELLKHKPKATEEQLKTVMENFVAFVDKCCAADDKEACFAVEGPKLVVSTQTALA

Binder	binding result [1]	Kd [2]	koff [2]	kon [2]
anti-γDPGA chimpanzee monoclonal antibody 4C, full-length IgG with human γ1 constant regions (antibody, V domains shown, also called 4C IgG; IgG1 of anti-γDPGA 4C monoclonal antibody) VH: LEESGGGLVKPGDSLRLSCAASGFTFSVYAMHWVRQAPEKGLEWVSTIGAGGNTWHSDSVKGRYTIARDNSQNTLSLQMNSLRAEDTAVYYCVRRGYCSSTRCDSNDAFDIWGQGTMVTVS VL: APMTQSPSSLSASVGDRVSITCRASQDINDFLAWFQQKPGKAPKRLIFRTSSLQGGVSSRFSGSGSGTEFTLTISNLRPEDFATYYCLQHSSYPPTFGQGTKLEISR	no binding	0.55 nM	0.0023 s⁻¹	4.2e+06 M⁻¹ s⁻¹
anti-γDPGA chimpanzee monoclonal antibody 11D, full-length IgG with human γ1 constant regions (antibody, V domains shown, also called 11D IgG; CH11D-hG1) VH: LESGGGLVKPGGSLTLSCAASGFTFSTYAMHWVRQAPEKGLEWVSTIGRSGDTLYSDSVKGRFSISRDNSKNTLYLQMNSLRAEDTAVYYCARKGYCSSTNCQSQYYFDYWGQGTLVTVS VL: ELTQSPSSLSASVGGRVTITCRASQDVNTWLAWYQQKPGKAPKPLIYAASSLQGGVPSRFSGSGSGTDFTLTISSLQPEDFATYYCQQYKHYPLTFGGGTKVEIKR	no binding	0.082 nM	9.04e-05 s⁻¹	1.1e+06 M⁻¹ s⁻¹
